In the assay the target is full-length ParE-ParC55 fusion protein of S. pneumoniae topoisomerase IV (Streptococcus pneumoniae) (UniProt Q59961). In words: crystal structure; full-length ParE-ParC55 fusion protein with 34 bp V-site DNA (1:2.2 protein:DNA), MgCl2; sitting drop, 50 mM sodium citrate pH 5.0, 4-7% isopropanol; space group P4(2)2(1)2, 3.7 Å; no ATP.

One may read the stoichiometry N as the number of molecules, sites or subunits per partner or assembly.

Turning to “full-length ParE-ParC55 fusion protein of S. pneumoniae topoisomerase IV (from UniProt Q59961 1-647; P72525 1-488) (enzyme)”, the stoichiometry N worked out at 2.

The record behind these values is PMC3834822.
